Results reported in US11733236B2, “Flattop (fltp) is a novel biomarker for beta cell maturation” (Helmholtz Zentrum München—Deutsches Forschungszentrum Für …, priority 2014, dated 2023).

B1: Wnt5a: noncanonical Wnt ligand of the Wnt/PCP pathway, obtained from R&D systems (protein, UniProt P41221 62-380, looked up)
Protein Wnt-5a: IIGAQPLCSQLAGLSQGQKKLCHLYQDHMQYIGEGAKTGIKECQYQFRHRRWNCSTVDNTSVFGRVMQIGSRETAFTYAVSAAGVVNAMSRACREGELSTCGCSRAARPKDLPRDWLWGGCGDNIDYGYRFAKEFVDARERERIHAKGSYESARILMNLHNNEAGRRTVYNLADVACKCHGVSGSCSLKTCWLQLADFRKVGDALKEKYDSAAAMRLNSRGKLVQVNSRFNSPTTQDLVYIDPSPDYCVRNESTGSLGTQGRLCNKTSEGMDGCELMCCGRGYDQFKTVQTERCHCKFHWCCYVKCKKCTEIVDQFVCK
B2: Wnt3a: ligand of the canonical Wnt/β-catenin pathway (protein, UniProt P56704 19-352, looked up)
Protein Wnt-3a: SYPIWWSLAVGPQYSSLGSQPILCASIPGLVPKQLRFCRNYVEIMPSVAEGIKIGIQECQHQFRGRRWNCTTVHDSLAIFGPVLDKATRESAFVHAIASAGVAFAVTRSCAEGTAAICGCSSRHQGSPGKGWKWGGCSEDIEFGGMVSREFADARENRPDARSAMNRHNNEAGRQAIASHMHLKCKCHGLSGSCEVKTCWWSQPDFRAIGDFLKDKYDSASEMVVEKHRESRGWVETLRPRYTYFKVPTERDLVYYEASPNFCEPNPETGSFGTRDRTCNVSSHGIDGCDLLCCGRGHNARAERRREKCRCVFHWCCYVSCQECTRVYDVHTCK

Key:
β cells = assay: multiple low-dose streptozotocin (STZ) model; type: in vivo, mouse; conditions: Fltp ZV/+ and Fltp ZV/ZV mice, 40 mg/kg i.p. daily for 5 days, vs vehicle, up to day 16
Protocol: […] Blood glucose level was measured every 2 days using Freestyle Lite glucometer (Abbot Laboratory). On day 16 after the first STZ injection, GTT was carried out as described and mice were euthanized.
To further test the requirement of PCP and Fltp in the context of β cell survival and regeneration, a multiple low-dose streptozotocin (STZ) model was employed (Kolb 1987). Streptozotocin is a naturally occurring chemical that is particularly toxic to β cells. For this purpose STZ was injected on five consecutive days and blood glucose regulation was measured every 2nd day thereafter in Fltp^ZV/+ and Fltp^ZV/ZV cohorts (FIG. 5C). […] Thus, loss of Fltp and planar polarization in β cells increases the vulnerability to STZ.

EndoC-β H1 human β-cells = assay: NKX6.1 maturation marker expression in EndoC-β H1 cells cultured in Matrigel (3D), WNT5a stimulation, LSM immunofluorescence; type: cell-based
Protocol: (§1) EndoC-β H1 human β-cell line were cultured in adherence (2D culture) as described previously (Ravassard et al. (2011)). For 3D matrigel based cultures EndoC-β H1 were cultured in Matrigel Matrix Growth Factor Reduced (BD Bioscience, Germany) diluted 1:2 in their respective medium. For analysis of WNT5a induced β-cell maturation, samples were stimulated with 400 ng/ml of WNT5a (R&D systems, Germany) for 12 h or 3 days.
Staining of EndoC-β H1 cells was performed as follows: cells were fixed for 10 min in 4% PFA at 37° C. washed 3× with PBS containing 0.2% Tween and 0.3% BSA (washing buffer) at RT, and permeabilized for 30 min on a shaker at RT. Subsequently the cells were washed again 3× with washing buffer at RT, blocked for 1 h at RT in blocking buffer (PBS including 0.02% Tween, 10% FCS, 0.2% BSA, 3% serum). Then the primary antibody was added in blocking solution and incubated over night at 4° C. The cells were washed 3× in washing buffer, incubated with the secondary antibody for 2 h at RT, washed 3× in washing buffer and embedded in Elvanol for subsequent imaging. Imaging was performed with a Leica SP5 confocal microscope according to the manufacturers guidelines. The 63× glycerol objective was used.

[1] = system: isolated islets of P5 WT animals; assay: Ucn3 maturation marker staining in isolated, re-aggregated islets of P5 WT animals, Wnt5a stimulation, LSM; type: cell-based, mouse
Protocol: as §1
Murine pancreatic islets of Langerhans were isolated from 5 day old mice. After decapitation of the animals, the pancreas was dissected and supplemented with collagenase P (1 mg/ml) in HBSS (Hanks balanced salt solution) including 10% BSA (G-solution) and incubated for 15 min at 37° C. The pancreas was washed 2× in G-solution at RT and the islets were picked under the stereomicroscope (Leica). The islets were incubated in RPMI 1640 plus 5% FCS (fetal calf serum) and 1% P/S (penicillin and streptomycin). Afterwards the islets were trypsinized with 0.05% Trypsin […] at 37° C., washed twice with PBS plus 0.3% BSA and then seeded in iBidi 8 well chambers. For immunohistochemistry the protocol mentioned above was used. Fluorescent intensity was calculated by the Leica LAS-AF (Version 2.7.3.9723) software and the graphs were plotted with Excel.

[2] = system: Fltp reporter expression in β cells of cultured islets; assay: Fltp reporter expression in isolated islets cultured in absence or presence of Wnt ligands; type: cell-based, mouse; conditions: islets of Fltp-T2A-iCre x mTmG mice cultured in absence or presence of ligand
Protocol: For lineage tracing studies, islet from eight-week-old Fltp^T2A-iCre-mTmG were isolated as described above. For FACS analysis islet were incubate with 0.25% Trypsin-EDTA (Invitrogen) to obtain single cell suspensions and intarcellular staining for Nkx6.1 was performed. For live imaging experiment isolated islets from Fltp^T2A-iCre-mTmG were cultured in matrigel and imaging was performed using Leica Confocal SP5 microscope.
Islets of these crossings were isolated and cultured in vitro. To establish the culture conditions, it is first tested if β cells depend on Wnt/PCP signaling to maintain Ftp reporter expression. Therefore, islets were cultured in absence or presence of ligands of the canonical Wnt/β-catenin (Wnt3a) and non-canonical Wnt/PCP pathway (Wnt5a). […] Using these culture conditions in combination with live single cell imaging will allow us to follow new born Fltp-Cre expressing mT and mG expressing cells over a time-course of two to four days.

Molecule	loss of β cells (immunohistochemistry on pancreatic sections) (β cells)	expression of NKX6.1 (fluorescent intensity, NKX6.1 high vs low cells) (EndoC-β H1 human β-cells; EndoC-β H1 in Matrigel (3D) treated with WNT5a vs 3D without WNT5a, 400 ng/ml)	expression of maturation markers (EndoC-β H1 human β-cells; EndoC-β H1 stimulated with Wnt5a)	amount of maturation marker Ucn3 protein ([1]; islets of P5 WT animals treated with Wnt5a for 12 h vs non-treated, 400 ng/ml, n=3)	Ucn3 maturation marker staining ([1]; islets of P5 WT animals treated with Wnt5a for 3 days vs untreated, 400 ng/ml, n=3)	expression of maturation markers ([1]; neonatal isolated islets stimulated with Wnt5a)	maintenance of Fltp reporter gene expression [2]
CN(N=O)C(=O)N[C@H]1C(O)O[C@H](CO)[C@@H](O)[C@@H]1O (mixture of isomers) [STZ, Streptozotocin]	gradual loss of β cells	–	–	–	–	–	–
B1	–	higher expression of NKX6.1	increased expression of maturation markers	higher amount of maturation marker Ucn3 protein	significant increase in Ucn3 maturation marker staining	increased expression of maturation markers	Fltp-reporter gene expression indeed depend on Wnt/PCP
B2	–	–	–	–	–	–	not canonical Wnt signaling
